Among the data in publication PMC12846780 are percent of T cells in PBMCs positive for VEGF-647 after 24 h with 10 nM kineTAC and 25 nM VEGF-647 (four donors) values, retold here.

This assay concerns the target IL7R (human (endogenous in PBMC T cells, SiHa, Daudi)) (UniProt P16871).
Sequence of UniProt P16871 (P16871 21-459): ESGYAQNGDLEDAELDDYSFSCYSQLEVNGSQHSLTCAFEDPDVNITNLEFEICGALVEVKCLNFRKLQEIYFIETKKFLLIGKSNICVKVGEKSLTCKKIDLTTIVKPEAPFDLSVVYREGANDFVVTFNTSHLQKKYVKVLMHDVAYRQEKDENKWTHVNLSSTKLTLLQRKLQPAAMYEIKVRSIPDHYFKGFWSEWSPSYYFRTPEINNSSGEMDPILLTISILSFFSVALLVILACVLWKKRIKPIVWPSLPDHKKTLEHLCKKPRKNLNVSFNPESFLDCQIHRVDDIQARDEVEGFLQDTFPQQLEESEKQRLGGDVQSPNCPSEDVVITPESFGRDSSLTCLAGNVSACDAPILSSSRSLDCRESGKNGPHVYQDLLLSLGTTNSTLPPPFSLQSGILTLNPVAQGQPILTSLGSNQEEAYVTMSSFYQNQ

“IL7-Bevacizumab kineTAC (from UniProt P13232 26-177) (bispecific antibody)” had a percent of T cells in PBMCs positive for VEGF-647 after 24 h with 10 nM kineTAC and 25 nM VEGF-647 (four donors) of 85.4%.
